Consider eight molecules from patent publication US20050112698A1 (Bayer, published 2005).

In assay [1] the target is T1, human Stem Cell Factor (human, UniProt P21583 26-189). The assay can be described thus: cell-based or functional assay.
Assay [2] deals with T2, Cynomolgus Monkey SCF (cynomolgus monkey, UniProt A0A7N9CAX5 26-189). The experiment in a line: cell-based or functional assay.
Assay [3] has as its target T1, human Stem Cell Factor. The assay can be described thus: cell-based or functional assay. The source holds these as a separate data set.
For assay [4], the target named is T1, human Stem Cell Factor. The assay can be described thus: BIAcore, Fab on immobilized SCF.
For assay [5], the target named is T1, human Stem Cell Factor. The assay can be described thus: cell-based or functional assay. The source holds these as a separate data set.
Assay [6] concerns the target T1, human Stem Cell Factor. The assay can be described thus: cell-based or functional assay. This is another data set of the same source.
Assay [7] has as its target T2, Cynomolgus Monkey SCF. The experiment in a line: cell-based or functional assay. The source holds these as a separate data set.
The target in assay [8] is T1, human Stem Cell Factor. The assay can be described thus: BIAcore, Affinity Estimation, Fab.
Assay [9] addresses T2, Cynomolgus Monkey SCF. The assay can be described thus: SPR BIAcore 2000, Fab over 185 RU immobilized cSCF. As for the experimental part: (§1) Affinity measurements were carried out on a BIAcore 2000 (Biacore) at 25° C. […] Purified Fab's were diluted in HBS-EP running buffer at concentrations ranging from 1.95 to 125 nM. A volume of 100 μl was injected using a flow rate of 50 μl/min in Kinject mode. After a 10 min dissociation, 50 μl of 10 mM Glycine, pH 2.5 and 25 μl of 10 mM Glycine, pH 2.0 was injected using a flow rate of 100 μl/min. All samples were run in duplicate. […] Cynomologus monkey SCF was diluted in HBS-EP running buffer at concentrations ranging from 15.6 to 500 nM and 150 μl injected at a flow rate of 50 μl/min. After a 15 min dissociation, 50 μl of 10 mM Glycine, pH 2.5, and 25 μl of 10 mM Glycine, pH 1.5 was injected using a flow rate of 100 μl/min. All samples were run in duplicate. The data was globally fit to the 1 to 1 binding model using BIAevaluation software. The raw experimental data were corrected for instrumental and bulk solvent artifacts by double referencing using both activated and blocked surfaces as controls.
(§2) To evaluate the binding properties of anti-SCF Fabs selected from affinity optimization of the CDR3 loop with SCF, the real time interaction was measured using surface plasmon resonance with the BIAcore 2000. […] The improvement in Kd's are primarily governed by a substantial reduction in the off-rate (koff). […] The affinity constants for Fab binding to human SCF were slightly lower than those Kd's for cynomologus monkey SCF. The panning design, with lower antigen concentrations and extensive washing steps, favors off-rate selection. The affinity of the A2-G8 clone in an IgG vector was measured using the IgG immobilized to the surface of the CM5 chip.
A general note: In SPR one partner is held on a chip, and binding of the other changes the refractive index at the surface.

Assay [10] has as its target T2, Cynomolgus Monkey SCF. The experiment in a line: competition ELISA: cSCF binding to coated human SCFR, Fab 3.1 µg/ml. As for the experimental part:
The extracts containing Fab were also tested for the ability to inhibit SCF binding to the SCF receptor. ELISA plates were coated overnight with 2 μg/ml human SCFR (R&D Systems, Minneapolis, Minn.) in PBS at 4° C. After washing with TBS-T, the plate was blocked with 5 mg/ml BSA in PBS. The extract was diluted 1/5 in PBS buffer containing 12.5 ng/ml cSCF and 1 mg/ml BSA. After a 1 hr incubation at room temperature, 100 μl was added to the blocked ELISA plate and incubated an additional hour. The plate was washed 5 times with TBS-T, and 100 μl of a 0.4 μg/ml solution of anti-SCF (R&D Systems) in 1 mg/ml BSA in PBS was added. After 1 hour the plate was washed and incubated with anti-Mouse-HRP (Sigma, St. Louis, Mo.). The plate was developed with BM Blue POD substrate (Roche Diagnostics, Chicago, Ill.) and read at 370 nm.
(§3) TABLE 12 Sequences of the CDR3 Vk1 Region of Selected Antibody Clones with Comparison of koff and SCF Inhibitory Activity The off-rates were determined using a high density surface CM5 chip (5000 RU of immobilized cSCF) on BIAcore and are shown with comparison to the original A2-G8 clone. […] The IC₅₀ in the TF-1 proliferation assay was based on an average of two assays with the exception of the A2-G8-IgG (n = 5).
In general terms: ELISA stands for enzyme-linked immunosorbent assay.

Assay [11] has as its target T2, Cynomolgus Monkey SCF. The assay can be described thus: SPR BIAcore, initial screening (high RU of immobilized antigen, low flow rate). As for the experimental part:
Analysis of Fab binding to cSCF was performed by surface plasmon resonance using a BIAcore 2000 (Biacore, Piscataway, N.J.), according to the manufacturer's instructions and a CM5 chip (Biacore) coated with cSCF. For amine coupling, a research grade CM5 chip was activated using the standard NHS/EDC procedure. Cynomologus monkey SCF was diluted to 20 μg/ml in 10 mM NaAcetate, pH 5.0, and a total of 5000 RU's were coupled to channel 2 of the sensor surface. The remaining active sites were quenched by the addition of 1M ethanolamine, pH 8.0. Channel 1 was subjected to the coupling procedure in the absence of protein and was used as a reference surface. […] The koff was calculated from a single concentration of Fab using BIAevaluation software (Biacore).
The koffrates determined using kinetic conditions (low RU's of immobilized antigen and high flow rates) on the BIAcore gave higher values than those koff's determined under non-kinetic conditions used during the initial screening procedure (high RU's of immobilized antigen and low flow rates). This is especially apparent for the A2-G8 Fab, where a koff of 6×10⁻³ sec⁻¹ was measured during the initial screening process, compared to a koff value of 1×10⁻² sec⁻¹ measured using kinetic parameters. […] The koff rates determined in the initial screening process, therefore, should not be considered absolute values but a ranking with other Fabs.

In assay [12] the target is T2, Cynomolgus Monkey SCF. The experiment in a line: SPR BIAcore, 5000 RU immobilized cSCF, off-rate ranking; high density chip (5000 RU cSCF), off-rate ranking. As for the experimental part: as §3
Analysis of Fab binding to cSCF was performed by surface plasmon resonance using a BIAcore 2000 (Biacore, Piscataway, N.J.), according to the manufacturer's instructions and a CM5 chip (Biacore) coated with cSCF. For amine coupling, a research grade CM5 chip was activated using the standard NHS/EDC procedure. Cynomologus monkey SCF was diluted to 20 μg/ml in 10 mM NaAcetate, pH 5.0, and a total of 5000 RU's were coupled to channel 2 of the sensor surface. The remaining active sites were quenched by the addition of 1M ethanolamine, pH 8.0. Channel 1 was subjected to the coupling procedure in the absence of protein and was used as a reference surface. Extracts were diluted 1/5 in HBS-EP running buffer and injected for 2 min using a flow rate of 20 μl/min. The surface was regenerated by two consecutive injections of 25 μl, 10 mM glycine, pH 2.5, using a flow rate of 100 μl/min. The koff was calculated from a single concentration of Fab using BIAevaluation software (Biacore).

Assay [13] has as its target T1, human Stem Cell Factor. The experiment in a line: cell-based or functional assay. The source holds these as a separate data set.
For assay [14], the target named is T2, Cynomolgus Monkey SCF. The experiment in a line: SPR BIAcore 2000, cSCF over 550 RU immobilized IgG. As for the experimental part:
as §1, §2

Assay [15] deals with T2, Cynomolgus Monkey SCF. The assay can be described thus: SPR BIAcore, off-rate (legend: 5000 RU immobilized cSCF); Table 12 off-rate list (legend: immobilized cSCF).
The next assay has as its target T3, rat Stem Cell Factor (rat, UniProt P21581 26-189, limits assumed).
T3 sequence (looked up): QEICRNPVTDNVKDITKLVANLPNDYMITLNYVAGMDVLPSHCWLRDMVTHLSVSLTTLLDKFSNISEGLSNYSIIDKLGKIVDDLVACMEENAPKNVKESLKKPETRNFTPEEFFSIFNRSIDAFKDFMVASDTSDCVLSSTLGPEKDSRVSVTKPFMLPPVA
The experiment in a line: cell-based or functional assay.

Residue numbers refer to the chain shown, from its start. A value given as a limit tells only on which side of the number the result lay.

T1 sequence (P21583 other isoform, or with tags, fused parts or gaps limits assumed): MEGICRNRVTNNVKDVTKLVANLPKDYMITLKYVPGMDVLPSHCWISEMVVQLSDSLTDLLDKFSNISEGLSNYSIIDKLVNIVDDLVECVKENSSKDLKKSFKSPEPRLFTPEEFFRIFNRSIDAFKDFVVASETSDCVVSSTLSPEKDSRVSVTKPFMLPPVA

B1: Fab A8 (first screen, Vλ1) (Fab, V domains shown)
VH: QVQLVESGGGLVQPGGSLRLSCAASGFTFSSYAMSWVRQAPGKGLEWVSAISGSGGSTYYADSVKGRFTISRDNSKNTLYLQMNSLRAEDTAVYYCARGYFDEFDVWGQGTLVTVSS
VL: DIVLTQPPSVSGAPGQRVTISCSGSSSNIGSNYVSWYQQLPGTAPKLLIYDNNQRPSGVPDRFSGSKSGTSASLAITGLQSEDEADYYCQSRDHYVVRWVFGGGTKLTVL
notes: It carries FLAG and Strep tags
With B1, the “percent inhibition of SCF-induced TF-1 proliferation at 200 ug/ml Fab” value (from here on “percent inhibition”) with human Stem Cell Factor [1] and with Cynomolgus Monkey SCF [2] was over 100% each time. Besides, in the assay with human Stem Cell Factor [3], the “Efficacy IC50 (TF-1 proliferation assay, Fab)” value was found to be 30 µg/mL. Further, in the assay with human Stem Cell Factor [4], the Kd (in general, the concentration at which binding is half-saturated) came to 9.7 nM.

B2: Fab A2-G8 (Fab, V domains shown)
VH: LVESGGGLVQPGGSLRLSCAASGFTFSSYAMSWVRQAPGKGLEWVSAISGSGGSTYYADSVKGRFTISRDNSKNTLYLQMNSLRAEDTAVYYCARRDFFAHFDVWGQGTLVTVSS
VL: QMTQSPSSLSASVGDRVTITCRASQGIRGYLGWYQQKPGKAPKLLIYSASSLQSGVPSRFSGSGSGTDFTLTISSLQPEDFATYYCQQYSGMPYTFGQGTKVEIKR
notes: Fab format; also called anti-SCF Fab A2-G8; parent Fab A2-G8
B2: in the assay with human Stem Cell Factor [5], the “TF-1 Fab assay IC50” value was determined as 5 µg/mL. Besides, the “IC50 TF-1 huSCF Assay” value in the assay with human Stem Cell Factor [6] turned out to be 2.36 µg/mL. Besides, the “IC50 TF-1 cynoSCF Assay” value with Cynomolgus Monkey SCF [7] was determined as 5.7 µg/mL. Moreover, the Kd in the assay with human Stem Cell Factor [8] was 9 nM; with Cynomolgus Monkey SCF [9] it was 25.1 nM. Besides, the koff – broadly, the rate constant with which the complex falls apart – with Cynomolgus Monkey SCF [9] was found to be 0.0106 s⁻¹; with Cynomolgus Monkey SCF [11] it was 0.006 s⁻¹; with Cynomolgus Monkey SCF [12], 0.00306 s⁻¹. Besides, the on-rate constant (kon) (in general, the rate constant with which the complex forms) in the assay with Cynomolgus Monkey SCF [9] was 420000 M⁻¹ s⁻¹. Moreover, the “% Inhibition SCF Binding ELISA Assay” value with Cynomolgus Monkey SCF [10] came out at 30%.

B3: A2-G8 IgG (antibody, V domains shown)
VH: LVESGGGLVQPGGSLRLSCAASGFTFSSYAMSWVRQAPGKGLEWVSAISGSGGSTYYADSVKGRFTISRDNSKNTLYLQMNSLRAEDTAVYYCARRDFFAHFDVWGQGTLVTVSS
VL: B2 VL
notes: Human IgG1 kappa expressed in HKB11 cells; also called A2-G8 Mab; SCF antibody A2-G8
For the molecule B3, in the assay with human Stem Cell Factor [5], the “Eosinophil IgG assay IC50 (human eosinophil survival)” value is 1.5 µg/mL and the “TF-1 IgG assay IC50” value worked out at 1 µg/mL. In the assay with human Stem Cell Factor [13], the “IC50, Cyno Eos (SCF-stimulated cyno eosinophil survival)” value worked out at 3 µg/mL; the “IC50, Human Eos (SCF-stimulated human eosinophil survival)” value is 1.5 µg/mL; the “IC50, TF-1 (SCF-induced TF-1 proliferation)” value was 1 µg/mL. Further, the “IC50 TF-1 huSCF Assay” value in the assay with human Stem Cell Factor [6] was 2.32 µg/mL. The “IC50 TF-1 cynoSCF Assay” value with Cynomolgus Monkey SCF [7] turned out to be 11.2 µg/mL. Moreover, in the assay with Cynomolgus Monkey SCF [14], the Kd was determined as 35.8 nM, the koff is 0.0013 s⁻¹ and the on-rate constant (kon) worked out at 36300 M⁻¹ s⁻¹. Further, the koff with Cynomolgus Monkey SCF [15] turned out to be 0.0013 s⁻¹.

B4: Fab A2 (Fab, V domains shown)
VH: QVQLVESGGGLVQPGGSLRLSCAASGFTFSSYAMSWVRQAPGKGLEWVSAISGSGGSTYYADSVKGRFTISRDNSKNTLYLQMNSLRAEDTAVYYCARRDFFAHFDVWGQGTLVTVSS
VL: DIQMTQSPSSLSASVGDRVTITCRASQGISSYLAWYQQKPGKAPKLLIYAASSLQSGVPSRFSGSGSGTDFTLTISSLQPEDFATYYCQQYSGMPYTFGQGTKVEIK
notes: HuCAL Fab and parent of the A2-xx clones; It carries FLAG and Strep tags
On to B4, for which, in the assay with human Stem Cell Factor [1], the “percent inhibition” value was over 100%. In addition, in the assay with Cynomolgus Monkey SCF [2], the “IC50, inhibition of cyno SCF in TF-1 proliferation” value lay within 20 to 60 µg/mL and the “percent inhibition” value was over 100%. Further, in the assay with rat Stem Cell Factor, the “IC50, inhibition of rat SCF in TF-1 proliferation” value fell in the range of 20 to 60 µg/mL and the “percent inhibition” value was over 100%. Moreover, in the assay with human Stem Cell Factor [3], the “Efficacy IC50 (TF-1 proliferation assay, Fab)” value is 29 µg/mL. This molecule also showed a Kd in the assay with human Stem Cell Factor [4] of 65.7 nM.

B5: Fab A2-E8 (Fab, V domains shown)
VH: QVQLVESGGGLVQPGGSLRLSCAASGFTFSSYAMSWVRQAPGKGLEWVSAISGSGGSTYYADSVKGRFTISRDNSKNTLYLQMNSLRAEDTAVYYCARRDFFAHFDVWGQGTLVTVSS
VL: B4 VL with S30F, S31K
As for B5, the “TF-1 Fab assay IC50” value in the assay with human Stem Cell Factor [5] was determined as 8 µg/mL. Moreover, the Kd in the assay with human Stem Cell Factor [8] is 17 nM.

B6: Fab A2-H8 (Fab, V domains shown)
VH: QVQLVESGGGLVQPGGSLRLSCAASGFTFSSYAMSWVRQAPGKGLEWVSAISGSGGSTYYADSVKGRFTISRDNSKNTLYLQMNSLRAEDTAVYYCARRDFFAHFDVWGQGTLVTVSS
VL: B4 VL with S30I, S31G, A34G, A50R
In the case of B6, the “TF-1 Fab assay IC50” value with human Stem Cell Factor [5] stood at 25 µg/mL. Besides, the Kd in the assay with human Stem Cell Factor [8] was 44 nM.

B7: Fab A2-D12 (Fab, V domains shown)
VH: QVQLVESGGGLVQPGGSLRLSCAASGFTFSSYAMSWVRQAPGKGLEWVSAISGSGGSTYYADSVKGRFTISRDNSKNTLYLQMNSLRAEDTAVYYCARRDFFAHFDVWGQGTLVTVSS
VL: B4 VL with S30W, S31L, A34S
In the case of B7, the Kd with human Stem Cell Factor [8] was 18 nM.

B8: Fab A2-A1 (Fab, V domains shown)
VH: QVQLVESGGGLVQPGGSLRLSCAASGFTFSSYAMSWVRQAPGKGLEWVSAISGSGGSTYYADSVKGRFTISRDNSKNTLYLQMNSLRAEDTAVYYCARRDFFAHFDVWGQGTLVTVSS
VL: B4 VL
B8: the “TF-1 Fab assay IC50” value with human Stem Cell Factor [5] worked out at 25 µg/mL. For the same molecule, the Kd with human Stem Cell Factor [8] was 57 nM.
